This note sets out measurements from paper PMC6006169, “Conformational switching in the coiled-coil domains of a proteasomal ATPase regulates substrate processing” (Nature Communications, 2018).

Data set [1] deals with T1, PAN (proteasome-activating nucleotidase) (Methanocaldococcus jannaschii, UniProt Q58576, L73C/M87C).
T1 construct: full-length, pRSETA, E. coli BL21(DE3)-RIL, heat precipitation, anion exchange and size exclusion; no tag mentioned; homohexamer
Nature of the data set: NADH-coupled ATP regenerating ATPase assay ([…] nm). The class given is biochemical. As to conditions: oxidized (tetrathionate): coiled-coil disulfide crosslinked C1 and C3, no saturation with ATP; pH 7.5, 37 °C, 20 mM MgCl2; original residue 73 not given.

Data set [2] addresses CC-OB domain fragment of PAN-M87C (subcomplex I) (Methanococcus jannaschii). Nature of the data set: cross-linking; PAN-M87C after partial trypsin proteolysis and gel filtration (Superose 12); fractions 1 and 3 in 1 mM tetrathionate 1 h at room temperature, desalted, non-reducing SDS-PAGE, silver stain.
Substrate in the data set “purified protein”: Nc1ncnc2c1ncn2[C@@H]1O[C@H](COP(=O)(O)OP(=O)(O)OP(=O)(O)O)[C@@H](O)[C@H]1O
Nature of the data set: purified protein. It counts as biochemical, Methanocaldococcus jannaschii. The conditions noted are these: reduced (uncrosslinked), pH 7.5, 37 °C.

Data set [3] deals with the molecule itself. Nature of the data set: cross-linking; disulfide cross-linking of engineered cysteines; 1 mM tetrathionate, 1-2 h, room temperature, 50 mM Tris pH 7.5 + 5% glycerol, no nucleotide, PAN at or below 0.25 mg/ml; desalted on G50, non-reducing SDS-PAGE, Coomassie, densitometry of monomers vs. dimers.

Substitutions are numbered along the chain they refer to. In names and notes the source's numbering stands.

T1 sequence (Q58576 whole entry L73C/M87C): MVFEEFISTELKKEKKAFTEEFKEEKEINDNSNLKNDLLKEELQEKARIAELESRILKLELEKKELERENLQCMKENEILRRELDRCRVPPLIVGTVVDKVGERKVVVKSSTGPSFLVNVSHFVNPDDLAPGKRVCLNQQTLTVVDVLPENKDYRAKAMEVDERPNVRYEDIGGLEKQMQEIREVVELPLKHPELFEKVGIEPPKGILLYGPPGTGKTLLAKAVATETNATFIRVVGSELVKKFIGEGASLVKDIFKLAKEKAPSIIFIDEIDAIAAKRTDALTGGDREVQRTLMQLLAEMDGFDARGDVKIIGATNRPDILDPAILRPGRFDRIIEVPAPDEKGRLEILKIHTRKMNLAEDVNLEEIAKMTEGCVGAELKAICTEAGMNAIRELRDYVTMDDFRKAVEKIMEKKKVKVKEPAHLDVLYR

On to `Nc1ncnc2c1ncn2[C@@H]1O[C@H](COP(=O)(O)OP(=O)(O)OP(=O)(O)O)[C@@H](O)[C@H]1O` [ATP], for which the Km in data set [1] is greater than 3000 µM.

As to “CC-OB domain fragment of PAN-M87C (subcomplex I) (domain or fragment)”, the percent cross-linked dimers in data set [2] was found to be 100%.

B1: PAN 59C (enzyme, Methanococcus jannaschii, UniProt Q58576 1-430, looked up)
chain: MVFEEFISTELKKEKKAFTEEFKEEKEINDNSNLKNDLLKEELQEKARIAELESRILKCELEKKELERENLQLMKENEILRRELDRMRVPPLIVGTVVDKVGERKVVVKSSTGPSFLVNVSHFVNPDDLAPGKRVCLNQQTLTVVDVLPENKDYRAKAMEVDERPNVRYEDIGGLEKQMQEIREVVELPLKHPELFEKVGIEPPKGILLYGPPGTGKTLLAKAVATETNATFIRVVGSELVKKFIGEGASLVKDIFKLAKEKAPSIIFIDEIDAIAAKRTDALTGGDREVQRTLMQLLAEMDGFDARGDVKIIGATNRPDILDPAILRPGRFDRIIEVPAPDEKGRLEILKIHTRKMNLAEDVNLEEIAKMTEGCVGAELKAICTEAGMNAIRELRDYVTMDDFRKAVEKIMEKKKVKVKEPAHLDVLYR
notes: Expressed from pRSETA; no tag named; source: E. coli BL21-DE3-RIL, purified (heat precipitation, anion exchange, size exclusion)
For B1, in the data set “purified protein” (20 mM MgCl2, original residue 59 not given), the Km stood at 436 ± 29 µM. The percent cross-linked in data set [3] worked out at 69%.

B2: PAN (proteasome-activating nucleotidase) (Methanocaldococcus jannaschii DSM 2661; L59C/L73C/M87C) (protein)
chain: B1 chain with L73C, M87C
notes: full-length, pRSETA, E. coli BL21(DE3)-RIL, heat precipitation, anion exchange and size exclusion; no tag mentioned; homohexamer
As for B2, the Km in the data set “purified protein” (20 mM MgCl2, original residues 73 and 59 not given) came to 580 ± 64 µM.
